Results published in the supplement of paper PMC10126150.
± gives the standard deviation of the averaged measurements.

test system: ATP; test: switch fluorescence ratio, 500 uM ATP over buffer (Cy3 cluster intensity, sum of 5 cycles each) (fold (ratio)); higher = stronger signal-on switching upon ATP binding; sequences stand for … in TCGTCGGCAGCGTCAGATGTGTATAAGAGACAGTTTTTTTTTTTTTTTTTTTTTTTTT…TC; details: aptamer strand: ATP DNA aptamer (quencher-CACCTGGGGGAGTATTGCGGAGGAAGG + anchor), 100 nM annealed; ATP concentration: 500 uM
Method in brief: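 Switching-strand clusters labelled with Cy3 on a modified Illumina MiSeq flow-cell were annealed to 100 nM quencher-labelled ATP aptamer, imaged in selection buffer, and re-imaged after 15 min with 500 uM ATP at 22 °C. This was done over five cycles with NaOH stripping and re-annealing in between. The fluorescence ratio is summed target-cycle over summed buffer-cycle Cy3 intensity per cluster, averaged per switch-domain sequence, excluding clusters outside 100-1000 RFU.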
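Further: ATP exposure 15 min at 22 °C before imaging.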

| Sequence | switch fluorescence ratio |
| --- | --- |
| GGGTTAAGTC | 0.983 ± 0.028 |
| GAGGGCATGA | 0.993 ± 0.074 |
| GCTTGCAAAG | 1.007 ± 0.0031 |
| TTAATGACTT | 1.02 ± 0.058 |
| TTTGGACGGG | 0.995 ± 0.033 |
| TATAATTCTA | 0.9844 ± 0.0075 |
| ACCTCATTAA | 1.03 ± 0.015 |
| GACTGGTTGG | 1.02 ± 0.029 |
| GTTATATTG | 1.01 ± 0.031 |
| GCCGCCTTTT | 1.023 ± 0.0016 |
| AAGATGAGGT | 1.01 ± 0.021 |
| TCATGGTTTA | 1.01 ± 0.016 |
| GCTGACGTTA | 1.1 ± 0.011 |
| GATATAACAT | 1.028 ± 0.0025 |
| CTGTCCGTTG | 1.01 ± 0.017 |
| TTGGTTTCGT | 1.022 ± 0.0059 |
| TTGTGTTTAT | 0.965 ± 0.015 |
| GTAATGCCAG | 0.986 ± 0.031 |
| GATGACCTCA | 0.998 ± 0.093 |
| AAAGGTCTGG | 0.9794 ± 0.0049 |
| GACATTTCTT | 1.01 ± 0.011 |
| ATGAAAAATT | 1.01 ± 0.031 |
| GAGTTGACGG | 1.03 ± 0.013 |
| GGTTCGTATA | 1.01 ± 0.017 |
| GATATAAGGG | 0.979 ± 0.042 |

| Sequence | switch fluorescence ratio |
| --- | --- |
| ATAGGTATGT | 0.998 ± 0.023 |
| ATGTCGTGGG | 1.01 ± 0.037 |
| AGCGGATTTG | 0.966 ± 0.014 |
| ACGGCAGGAA | 1.04 ± 0.043 |
| TTATTGGGAC | 0.972 ± 0.02 |
| GTGTCTGAGC | 0.966 ± 0.031 |
| GAGGGAGGGT | 1.02 ± 0.032 |
| GCCGAAAGGA | 1.04 ± 0.039 |
| TACGGAGATT | 1.01 ± 0.035 |
| GGATGGGGGT | 0.9972 ± 0.0097 |
| TCTTCCGGTT | 1.233 ± 0.0018 |
| TTGATGGGTA | 1.01 ± 0.032 |
| TTTTAGGGGA | 1.01 ± 0.025 |
| AGAGTAGGGT | 1 ± 0.0043 |
| GCACACCAGT | 1.04 ± 0.014 |
| TCGTGGGGTT | 1.02 ± 0.012 |
| GATGCTGTGG | 0.958 ± 0.003 |
| TGGGAGATGT | 0.993 ± 0.015 |
| GTGATCATCG | 1.0081 ± 0.00023 |
| ATCACTCTTT | 1.02 ± 0.058 |
| ACGGGTATGG | 1.01 ± 0.017 |
| ATAGGGCCTT | 1.02 ± 0.05 |
| ATATTGGATT | 0.994 ± 0.018 |
| AAAAGATTGT | 1.043 ± 0.0085 |
| AGGTCGGGGA | 1.05 ± 0.056 |

| Sequence | switch fluorescence ratio |
| --- | --- |
| TTTGATTGAG | 0.953 ± 0.012 |
| TCAGGTATGT | 1.01 ± 0.038 |
| CTAGTAAGCG | 0.998 ± 0.048 |
| TGGAGTTACT | 0.994 ± 0.061 |
| TTCGTTTTAG | 0.996 ± 0.033 |
| CAGCTACGTC | 1.01 ± 0.04 |
| AAGGGAACTC | 1.03 ± 0.02 |
| GTTGAGTTGA | 1.01 ± 0.021 |
| GCTAGGTCTA | 1.01 ± 0.034 |
| TGTTGGCACA | 1.015 ± 0.0012 |
| ACCTGGGCAG | 1.07 ± 0.015 |
| TGTTTTGACG | 1.07 ± 0.085 |
| CAATTATTCG | 1.04 ± 0.052 |
| TATTCTCATC | 1.013 ± 0.0027 |
| CAACGGGCCA | 1.01 ± 0.029 |
| ACATATGGGC | 0.974 ± 0.037 |
| TCAACCGGGA | 1.06 ± 0.09 |
| CCGGGCGGGG | 1.07 ± 0.018 |
| TGACACATAC | 2.24 ± 0.033 |
| CAAAAAGCGT | 0.9786 ± 0.0056 |
| AGAGGGTTGG | 0.986 ± 0.022 |
| CCGCAGAGTG | 3.98 ± 2.1 |
| TGACGTTCGG | 0.978 ± 0.029 |
| TTTTTTCTGT | 1.01 ± 0.029 |
| TTTCGTGGGT | 0.9863 ± 0.006 |

| Sequence | switch fluorescence ratio |
| --- | --- |
| AGTTGCGTTG | 0.996 ± 0.015 |
| TAACATCTTT | 1.03 ± 0.013 |
| GCTAGTAGTC | 1.01 ± 0.046 |
| ATGGTATCGG | 1.026 ± 0.0074 |
| TCGGGCAGGT | 1.06 ± 0.064 |
| TGGTGAGGTG | 1.02 ± 0.02 |
| TTATGACGGG | 1 ± 0.036 |
| CCGGTTCATT | 1.0368 ± 0.00072 |
| TTAAGTCTTC | 0.964 ± 0.039 |
| TTTCTCGG | 1.07 ± 0.093 |
| TGAATTGGGA | 1.02 ± 0.07 |
| CTCGTTCCTG | 1 ± 0.031 |
| TTCCTTTTGT | 1.29 ± 0.43 |
| TTACATAGGG | 1.019 ± 0.0079 |
| GAAGTGGGTG | 1.11 ± 0.17 |
| ATGCTGGTGG | 0.978 ± 0.046 |
| TTTGTGGTGG | 1.01 ± 0.012 |
| TTATACATTG | 1.02 ± 0.041 |
| CATAATTTTT | 0.991 ± 0.062 |
| TTTTTTTGCA | 1 ± 0.024 |
| TTTCTGTTGG | 0.992 ± 0.035 |
| GGGAATAATA | 0.991 ± 0.023 |
| TTTGTGTGCG | 0.904 ± 0.047 |
| CAGGTGCGGG | 1.1694 ± 0.0009 |
| GAGAGCCACC | 0.971 ± 0.061 |
